Data published in patent US20250346890A1, “LEUKEMIA TREATMENT” (Deutsches Krebsforschungszentrum, priority 2019, published 2025).

Legend:
[1] = test system: Smad1; experiment: Western blot of pSmad1 and tSmad1 in HEPG2 cells; assay type: cell-based, human
Description: Cultured cells were rinsed with cold PBS and lysed in Triton lysis buffer ([…] Tris-Cl, pH 7.5, 1% Triton X-100, 150 mM NaCl, 1 mM EDTA, 1 mM EGTA, 1 mM β-glycerophosphate, 1 mM Na3 VO4) or RIPA buffer with complete Protease Inhibitor Cocktail (Roche 11697498001). Lysates were mixed with Laemmli buffer with β-mercaptoethanol and boiled at 95° C. for 5 min to prepare SDS-PAGE samples. Western blot images were acquired with SuperSignal West pico ECL (ThermoFisher 34580) or Clarity Western ECL (Biorad 1705061) using LAS-3000 system (FujiFilm). Quantification of blots was done using ImageJ software.

[2] = biological target: T1, extracellular domain of ALK3 (Homo sapiens, UniProt P36894); experiment: In vitro binding assay RSPO / ALK3^ECD (Scatchard plot)
T1 construct: made in house; host or cells: HEK293T (conditioned medium)
Description: High binding 96-well plates (Greiner M5811) were coated with 2 μg ml^−1 of recombinant human RSPO1 (Peprotech 120-38), RSPO2 (Peprotech 120-43), RSPO3 (Peprotech 120-44) or FGF8b (Peprotech 100-25) recombinant protein reconstituted in bicarbonate coating buffer (50 mM NaHCO3, pH 9.6) overnight at 4° C. Coated wells were washed three times with TBST (TBS, 0.1% Tween-20) and blocked with 5% BSA in TBST for 1 hour at room temperature. 1.5 U ml^−1 of ALK3^ECD-AP or control conditioned medium was incubated overnight at 4° C. Wells were washed six times with TBST and bound AP activity was measured by the chemiluminescent SEAP Reporter Gene Assay kit (Abcam ab 133077). For ZNRF3-ALK3 binding assay, plates were coated with recombinant human ZNRF3 Fc Chimera protein (R&D systems 7994-RF). ALK3^ECD-AP was preincubated with RSPO2-Flag, RSPO2^ΔTSP-Flag conditioned medium or recombinant RSPO protein prior to treatment. Control conditioned medium and vesicles were used as control. […] Statistical analyses show unpaired t-tests.

[3] = biological target: T2, ALK3RD (Homo sapiens, UniProt P36894, Q233D); experiment: BRE reporter assay in HEPG2 cells with constitutively active ALK3; assay type: cell-based; conditions: RSPO treatment
T2 construct: expressed in transfected cells; host or cells: HEPG2
Excerpt: Alkaline phosphatase (AP) fusions with RSPOs (human RSPO1^ΔC-AP-pCDNA3, RSPO2^ΔC-AP-pCDNA3, RSPO2^ΔC-AP-pCS2+, RSPO3^ΔC-AP-pCDNA3, murine RSPO4^ΔC-pCDNA3) were generated by replacing the C-terminal domain (ΔC) by AP and used to produce conditioned media. Human RSPO2 wild-type (RSPO2), Furin1 and Furin2 deletion mutants (RSPO2^ΔFU), and TSP1 domain deletion mutant (RSPO2^ΔTSP) are ORFs lacking the C-terminal domain, C-terminally tagged with a Flag-tag and subcloned into pCS2+. R1-TSP^R2, R1-TSP^R2-AP and R1-TSP^R2-Flag plasmids were generated by fusion PCR and cloned in pCS2+. Conditioned media from all RSPO constructs were adjusted to equal concentration by western blot and AP activity measurement, and further validated by WNT reporter assay using HEK293T cells. The extracellular domain of ALK3 (ALK3^ECD) was subcloned in AP-pCS2+ for generating conditioned medium and used in in vitro binding assays. Constitutively active forms of ALK2,3,6 (ALK^QD) were generated by Gln-Asp mutations as described in Fujii et al. (1999), Mol Biol Cell 10, 3801-3813, doi: 10.1091/mbc.10.11.3801. HA-tagged ALK3 was a gift from Dr. D. Koinuma (Goto et al. (2007), J Biol Chem 282, 20603-20611, doi: 10.1074/jbc.M702100200). For Xenopus mRNA microinjection, Xenopus laevis BMP4-pCS2+, myc-tagged RSPO2^ΔC-myc-pCS2+, RSPO2^ΔFU-myc-pCS2+ and RSPO2^ΔTSP-myc-pCS2+ plasmids, DNALK3-pCS2+, membrane-RFP, EYFP-tagged human ALK3-pCS2+ were used for in vitro transcription. Human ZNRF3 and ZNRF3^ΔRING constructs were gifts from Dr. F. Cong (Novartis; Hao et al. (2012), Nature 485, 195-200, doi: 10.1038/nature11019), and ORFs were subcloned in flag-pCS2+ for in vitro transcription.
BRE luciferase assays were executed using 300,000 ml^−1 of HEPG2 cells in 24-well plates. PGL3-BRE-Luciferase (500 ng ml^−1) and pRL-TK-Renilla plasmids (50 ng ml^−1) were transfected using Lipofectamine 3000. […] Luciferase activity was measured with the Dual luciferase reporter assay system (Promega E1960). Firefly luminescence (BRE) was normalized to Renilla. […]

T2 sequence (P36894 24-532 Q233D): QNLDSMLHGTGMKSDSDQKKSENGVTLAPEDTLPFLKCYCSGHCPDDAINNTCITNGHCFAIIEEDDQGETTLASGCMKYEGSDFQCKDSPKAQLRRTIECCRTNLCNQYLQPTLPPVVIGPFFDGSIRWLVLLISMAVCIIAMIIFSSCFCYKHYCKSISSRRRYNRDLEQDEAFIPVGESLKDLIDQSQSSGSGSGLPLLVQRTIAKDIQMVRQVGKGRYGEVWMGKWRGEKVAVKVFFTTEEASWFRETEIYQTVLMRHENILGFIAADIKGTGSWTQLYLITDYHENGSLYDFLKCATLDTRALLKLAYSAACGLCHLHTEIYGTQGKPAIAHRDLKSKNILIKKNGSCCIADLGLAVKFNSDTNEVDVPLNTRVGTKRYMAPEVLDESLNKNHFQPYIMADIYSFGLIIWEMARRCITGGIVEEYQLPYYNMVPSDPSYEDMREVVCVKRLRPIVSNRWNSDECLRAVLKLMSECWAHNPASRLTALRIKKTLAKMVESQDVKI
T1 sequence (P36894 24-152 limits assumed): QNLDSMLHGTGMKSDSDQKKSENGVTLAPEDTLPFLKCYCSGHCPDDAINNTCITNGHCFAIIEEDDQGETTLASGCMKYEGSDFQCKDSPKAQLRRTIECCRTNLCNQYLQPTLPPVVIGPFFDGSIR

B1: RSPO2: human R-spondin 2 protein (SEQ ID NO:1); conditioned medium or recombinant (Peprotech 120-43) (protein, listed as Homo sapiens)
chain: MQFRLFSFALIILNCMDYSHCQGNRWRRSKRASYVSNPICKGCLSCSKDNGCSRCQQKLFFFLRREGMRQYGECLHSCPSGYYGHRAPDMNRCARCRIENCDSCFSKDFCTKCKVGFYLHRGRCFDECPDGFAPLEETMECVEGCEVGHWSEWGTCSRNNRTCGFKWGLETRTRQIVKKPVKDTILCPTIAESRRCKMTMRHCPGGKRTPKAKEKRNKKKKRKLIERAQEQHSVFLATDRANQ
[1]
  phosphorylation of Smad1: decreased phosphorylation of Smad1
[2]
  Kd: ~4.8 nM
[3]
  BMP signaling induced by constitutively active ALK3: specifically inhibited
